In the supplement of paper PMC7877785:
± gives the uncertainty stated by the source.

Assay: self-splicing fitness, log relative to wild type (ln ratio); higher = more splicing; Tetrahymena group I intron in knt gene, E. coli kanamycin selection, DiMSum; sequences stand for … in CUCUCU…GGAGGGAAAAGUUAUCAGGCAUGCACCUGGUAGCUAGUCUUUAAACCAAUAGAUUGCAUCGGUUUAAAAGGCAAGACCGUCAAAUUGCGGGAAAGGGGUCAACAGCCGUUCAGUACCAAGUCUCAGGGGAAACUUUGAGAUGGCCUUGCAAAGGGUAUGGUAAUAAGCUGACGGACAUGGUCCUAACCACGCAGCCAAGUCCUAAGUCAACAGAUCUUCUGUUGAUAUGGAUGCAGUUCACAGACUAAAUGUCGGUCGGGGAAGAUGUAUUCUUCUCAUAAGAUAUAGUCGGACCUCUCCUUAAUGGGAGCUAGCGGAUGAAGUGAUGCAACACUGGAGCCGCUGGGAACUAAUUUGUAUGCGAAAGUAUAUUGAUUAGUUUUGGAGUACUCGUGGUCG
Summary of the method: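 The eight P1ex-region nucleotides of an intron in the knt kanamycin-resistance gene on pET-22b(+) were all randomised and the library put into E. coli BL21(DE3). Six replicate transformations were grown overnight at 37°C or 30°C on LB agar with or without 25 μg/mL kanamycin, together with 100 μg/mL carbenicillin, 50 μM IPTG and 0.2% rhamnose. Colonies were pooled and amplicon-sequenced on an Illumina HiSeq 2500. Fitness from DiMSum is the error-weighted combination of wild-type-normalised replicate fold changes, kanamycin over none.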

Sequence | self-splicing fitness (ln) (30 °C) | self-splicing fitness (ln) (37 °C)
GAAUAGCAAUAUUACGUGCG | -1.2 ± 0.074 | -0.181 ± 0.094
GAAUAGCAAUAUUACGUGCU | -2.04 ± 0.14 | -0.626 ± 0.12
GAAUAGCAAUAUUACGUGGA | -3.38 ± 0.25 | -1.17 ± 0.15
GAAUAGCAAUAUUACGUGGU | -3.01 ± 0.15 | -2.74 ± 0.24
GAAUAGCAAUAUUACGUGUC | -3.72 ± 0.27 | -2.58 ± 0.14
GAAUAGCAAUAUUACGUUAG | -3.39 ± 0.2 | -1.94 ± 0.18
GAAUAGCAAUAUUACGUUUU | -3.38 ± 0.16 | -0.859 ± 0.11
GACAAGCAAUAUUACGAAAU | -2.47 ± 0.14 | -0.766 ± 0.14
GACAAGCAAUAUUACGAACG | -1.55 ± 0.13 | -0.997 ± 0.22
GACAAGCAAUAUUACGAAUG | -2.42 ± 0.1 | -0.875 ± 0.098
GACAAGCAAUAUUACGAGCC | -1.08 ± 0.18 | -0.366 ± 0.15
GACAAGCAAUAUUACGAGCG | -1 ± 0.074 | -0.88 ± 0.088
GACAAGCAAUAUUACGAUUG | -1.77 ± 0.078 | -1.54 ± 0.14
GACAAGCAAUAUUACGCCCA | -0.451 ± 0.086 | -0.609 ± 0.13
GACAAGCAAUAUUACGCCCU | -0.581 ± 0.14 | 0.33 ± 0.15
GACAAGCAAUAUUACGCCGC | -3.31 ± 0.4 | -2.97 ± 0.43
GACAAGCAAUAUUACGCUGG | -2.84 ± 0.14 | -1.97 ± 0.17
GACAAGCAAUAUUACGGAAC | -1.94 ± 0.1 | -1.69 ± 0.17
GACAAGCAAUAUUACGGAGG | -4.57 ± 0.31 | -2.08 ± 0.19

Sequence | self-splicing fitness (ln) (30 °C) | self-splicing fitness (ln) (37 °C)
GACAAGCAAUAUUACGGCCA | -0.973 ± 0.11 | -0.192 ± 0.15
GACAAGCAAUAUUACGGGCC | -1.81 ± 0.18 | -1.96 ± 0.17
GACAAGCAAUAUUACGGUGG | -2.01 ± 0.066 | -1.88 ± 0.092
GACAAGCAAUAUUACGUAAA | -1.75 ± 0.069 | -1.09 ± 0.091
GACAAGCAAUAUUACGUAAG | -2.11 ± 0.12 | -1.36 ± 0.14
GACAAGCAAUAUUACGUACG | -1.82 ± 0.077 | -0.508 ± 0.091
GACAAGCAAUAUUACGUAUC | -3.31 ± 0.15 | -0.876 ± 0.14
GACAAGCAAUAUUACGUUAU | -3.17 ± 0.11 | -1.5 ± 0.095
GACCAGCAAUAUUACGAAUU | -0.37 ± 0.073 | -0.374 ± 0.1
GACCAGCAAUAUUACGACCU | 0.00245 ± 0.074 | -0.389 ± 0.073
GACCAGCAAUAUUACGACGA | -0.236 ± 0.091 | 0.15 ± 0.1
GACCAGCAAUAUUACGAUCG | -0.875 ± 0.091 | -0.444 ± 0.1
GACCAGCAAUAUUACGAUUC | -0.023 ± 0.075 | -0.543 ± 0.08
GACCAGCAAUAUUACGAUUG | -2.1 ± 0.073 | -1.08 ± 0.084
GACCAGCAAUAUUACGCCAG | -3.98 ± 0.28 | -0.652 ± 0.19
GACCAGCAAUAUUACGCCCG | -1.72 ± 0.12 | -0.754 ± 0.13
GACCAGCAAUAUUACGCGGA | -1.06 ± 0.1 | -0.442 ± 0.1
GACCAGCAAUAUUACGCUUC | -2.01 ± 0.1 | -1.66 ± 0.14
